B1: Complement C1r subcomponent (protein)
chain: SIPIPQKLFGEVTSPLFPKPYPNNFETTTVITVPTGYRVKLVFQQFDLEPSEGCFYDYVKISADKKSLGRFCGQLGSPLGNPPGKKEFMSQGNKMLLTFHTDFSNEENGTIMFYKGFLAYYQAVDLDECASRSKSGEEDPQPQCQHLCHNYVGGYFCSCRPGYELQEDTHSCQAECSSELYTEASGYISSLEYPRSYPPDLRCNYSIRVERGLTLHLKFLEPFDIDDHQQVHCPYDQLQIYANGKNIGEFCGKQRPPDLDTSSNAVDLLFFTDESGDSRGWKLRYTTEIIKCPQPKTLDEFTIIQNLQPQYQFRDYFIATCKQGYQLIEGNQVLHSFTAVCQDDGTWHRAMPRCKIKDCGQPRNLPNGDFRYTTTMGVNTYKARIQYYCHEPYYKMQTRAGSRESEQGVYTCTAQGIWKNEQKGEKIPRCLPVCGKPVNPVEQRQRIIGGQKAKMGNFPWQVFTNIHGRGGGALLGDRWILTAAHTLYPKEHEAQSNASLDVFLGHTNVEELMKLGNHPIRRVSVHPDYRQDESYNFEGDIALLELENSVTLGPNLLPICLPDNDTFYDLGLMGYVSGFGVMEEKIAHDLRFVRLPVANPQACENWLRGKNRMDVFSQNMFCAGHPSLKQDACQGDSGGVFAVRDPNTDRWVATGIVSWGIGCSRGYGFYTKVLNYVDWIKKEMEEED
B2: Heparin cofactor 2 (protein)
chain: GSKGPLDQLEKGGETAQSADPQWEQLNNKNLSMPLLPADFHKENTVTNDWIPEGEEDDDYLDLEKIFSEDDDYIDIVDSLSVSPTDSDVSAGNILQLFHGKSRIQRLNILNAKFAFNLYRVLKDQVNTFDNIFIAPVGISTAMGMISLGLKGETHEQVHSILHFKDFVNASSKYEITTIHNLFRKLTHRLFRRNFGYTLRSVNDLYIQKQFPILLDFKTKVREYYFAEAQIADFSDPAFISKTNNHIMKLTKGLIKDALENIDPATQMMILNCIYFKGSWVNKFPVEMTHNHNFRLNEREVVKVSMMQTKGNFLAANDQELDCDILQLEYVGGISMLIVVPHKMSGMKTLEAQLTPRVVERWQKSMTNRTREVLLPKFKLEKNYNLVESLKLMGIRMLFDKNGNMAGISDQRIAIDLFKHQGTITVNEEGTQATTVTTVGFMPLSTQVRFTVDRPFLFLIYEHRTSCLLFMGRVANPSRS
B3: Complement factor I (protein)
chain: KVTYTSQEDLVEKKCLAKKYTHLSCDKVFCQPWQRCIEGTCVCKLPYQCPKNGTAVCATNRRSFPTYCQQKSLECLHPGTKFLNNGTCTAEGKFSVSLKHGNTDSEGIVEVKLVDQDKTMFICKSSWSMREANVACLDLGFQQGADTQRRFKLSDLSINSTECLHVHCRGLETSLAECTFTKRRTMGYQDFADVVCYTQKADSPMDDFFQCVNGKYISQMKACDGINDCGDQSDELCCKACQGKGFHCKSGVCIPSQYQCNGEVDCITGEDEVGCAGFASVTQEETEILTADMDAERRRIKSLLPKLSCGVKNRMHIRRKRIVGGKRAQLGDLPWQVAIKDASGITCGGIYIGGCWILTAAHCLRASKTHRYQIWTTVVDWIHPDLKRIVIEYVDRIIFHENYNAGTYQNDIALIEMKKDGNKKDCELPRSIPACVPWSPYLFQPNDTCIVSGWGREKDNERVFSLQWGEVKLISNCSKFYGNRFYEKEMECAGTYDGSIDACKGDSGGPLVCMDANNVTYVWGVVSWGENCGKPEFPGVYTKVANYFDWISYHVGRPFISQYNV

Test system: Tau plaque particles
Assay: Mass spectroscopy proteomics, semi-quantitative binding affinity of serum proteins (plaqueproteome, Table 2)
Parameters: species or system human
Details: higher number = stronger affinity
Experimental: For Tau-74 (74-102) (Exon 3/Insert 2 domain) preparation, 1 mg of Tau-74 was suspended in 1 mL of PBS and the sample was incubated at 37° C. for 2 hrs. Similarly for preparing Tau-275 (275-305) (Repeat 2 domain) 1 mg of the peptide was suspended in 1 mL of PBS and the sample was incubated at 37° C. for 2 hrs. After incubation, all the samples were centrifuged for 5 min. at 5000 rpm to remove precipitate, if any, and the supernatant containing oligomers/aggregates were used for in vitro amyloid plaque particles formation assay. For detecting Tau plaque particles, Thioflavin S (Ex/Em=430 nm/550 nm) amyloid binding fluorescent dye (10 μg) was used in the assay.
Next, to isolate Tau plaque particles, as performed for Abeta-42 and Abeta-28 plaque particles isolation, diluted serum samples were used for incubation separately with Tau-45, Tau-74 and Tau-275 oligomers/aggregates. Each assay was performed in 1 mL reaction (800 μL of 50% plasma or serum) and 200 μL (30 μg) of each Tau aggregates and the mixtures were incubated at 37° C. for 1 hr. To the each mixture Thioflavin S dye (120 μg) was added and the sample was incubated for additional 30 min at 37° C. After the incubation, each sample was directly used for sample acquisition using flow cytometer (FACS ARIA II, BD Biosciences, San Jose, Calif.). After initial detection of Tau plaque particles, gates were drawn in the acquisition blot to separately sort and isolate fluorescently labeled Tau plaque particles.
(§1) For preparing trypsin digested peptide sequences, the isolated plaque particles were centrifuged at 10000 rpm for 5 min and the pellet containing plaque particles was resuspended in 100 μl PBS buffer. Stock solutions of digestion buffer (Ammonium Biocarbonate 50 mM), reducing buffer (DDT 100 mM) and alkylation buffer (lodoaceamide 100 mM) were prepared and stored at −20° C. for up to two months. For trypsin digestion, 100 μl of each plaque particles (2000 of Abeta-42, cholesterol, Tau and alpha-synuclein) were precipitated using cold acetone −80° C. by adding 4X's the volume. The samples were placed on dry ice for 10 min with intermittent vortex. Next, the samples were centrifuged at 4° C. at 10000 G for 10 min. Top layer of acetone was carefully removed from the tube with care not to disturb the plaque particles pellet. The samples were speed-vac for 10 min to ensure all acetone has been boiled away. The plaque particles pellet were reconstituted with 15 μl 8M Urea 100 mM Ammonium bicarbonate stock and 20 μl protease max solution. The protease max solution (Promega, Madison, Wis.) was prepared from stock by adding 60 μl 50 mM Ammonium bicarbonate and used for 3 solution digests (20 μl each). […] The tubes were incubated at 55° C. for 30 minutes. The tubes were then removed and brought to the room temperature followed by addition of 3.2 μl of 1M acrylamide and incubated at room temperature for 30 minutes. To the sample, 63 μL of 50 mM Ammonium bicarbonate was added for a final volume of 98 μl and 2 μl of trypsin (10 μg, Trypsin/Lys C Mix). After mixing the solution with pipet the samples were incubated at 37° C. overnight. After the overnight digest, the tryptic digest were quenched and acidified by adding 10 μl of 50% formic acid/water stock dilution. The samples were centrifuged at 10000 G for 2 minutes and purified using stage tip and used for MS/Mass analysis.
(§2) All MS/MS samples were analyzed using Sequest (Thermo Fisher Scientific, San Jose, Calif., USA; version 1.0). Sequest was set up to search the SUMS_uniprot_Human database (35847 entries) assuming the digestion enzyme strict trypsin. Sequest was searched with a fragment ion mass tolerance of 1.00 Da and a parent ion tolerance of 20 PPM. Propionamide of cysteine was specified in Sequest as a fixed modification. Oxidation of methionine and phospho of serine, threonine and tyrosine were specified in Sequest as variable modifications.

Row | Molecule | Semi-quantitative analysis of proteins binding to different plaque particles: Tau
1 | B1 | 4
2 | B2 | 6
3 | B3 | 3

Molecular target: T1, alpha-synuclein plaque particles (Homo sapiens, UniProt P37840)
T1 construct: 140 amino acids polypeptide
Assay: as above
Details: higher number = stronger affinity
Experimental: To prepare oligomers/aggregates of human alpha-synuclein (140 amino acids polypeptide), 1 mg of the recombinant alpha-synuclein protein was suspended in 1 mL of PBS and the sample was incubated at 37° C. for 2 hrs. After incubation, all the samples were centrifuged for 5 min. at 5000 rpm to remove precipitate, if any, and the supernatant containing oligomers/aggregates were used in vitro plaque particles formation assay. For detecting alpha-synuclein plaque particles Thioflavin S (Ex/Em=430 nm/550 nm) amyloid binding fluorescent dye (10 μg) was used.
Similarly, to isolate alpha-synuclein plaque particles, diluted plasma or serum samples obtained from AD subjects were used for incubation with alpha-synuclein plaque oligomers/aggregates. Each assay was performed in 1 mL reaction (800 μL of 50% plasma or serum) and 200 μL (30 μg) of the alpha-synuclein aggregates and the mixtures were incubated at 37° C. for 1 hr. To the mixture Thioflavin S dye (120 μg) was added and the sample was incubated for additional 30 min at 37° C. After the incubation, the mixture was directly used for sample acquisition using flow cytometer (FACS ARIA II, BD Biosciences, San Jose, Calif.). After initial detection of alpha-synuclein plaque particles, gates were drawn in the acquisition blot to separately sort and isolate fluorescently labeled alpha-synuclein particles.
as §1, §2
Scaffold (version Scaffold_4.2.1, Proteome Software Inc., Portland, Oreg.) was used to validate MS/MS based peptide and protein identifications.

Row | Molecule | Semi-quantitative analysis of proteins binding to different plaque particles: Synuclein
4 | B1 | 3
5 | B2 | 1
6 | B3 | 4

Molecular target: T2, Abeta-42 plaque particles (Homo sapiens, UniProt P05067)
T2 construct: Abeta 1-42
Assay: as above
Details: higher number = stronger affinity
Experimental: Next to isolate serum derived Abeta-42 plaque particles, the plasma or serum samples obtained from AD subjects were first centrifuged at 5,000 rpm for 5 min and the supernatants were transferred to new centrifuge tubes. Next, the supernatants were diluted in PBS to make 50% of the serum and plasma samples and used for incubation with Abeta-42 plaque oligomers/aggregates. Each assay was performed in 1 mL reaction (800 μL of 50% plasma or serum) and 200 μL (30 μg) of the Abeta-42 aggregates and the mixtures were incubated at 37° C. for 1 hr. To the mixture Thioflavin S dye (120 μg) was added and the sample was incubated for additional 30 min at 37° C. After the incubation, the mixture was directly used for sample acquisition using flow cytometer (FACS ARIA II, BD Biosciences, San Jose, Calif.). After initial detection of Abeta-42 plaque particles in the acquisition blot, gates were drawn in fluorescent dot blot to separately sort and isolate fluorescently labeled Abeta-42 particles.
as §1, §2
Scaffold (version Scaffold_4.2.1, Proteome Software Inc., Portland, Oreg.) was used to validate MS/MS based peptide and protein identifications. […] Protein probabilities were assigned by the Protein Prophet algorithm (Nesvizhskii, Al et al 2003). […] Proteins sharing significant peptide evidence were grouped into clusters. Proteins were annotated with GO terms from NCBI (downloaded Jan. 17, 2014).

Row | Molecule | Semi-quantitative analysis of proteins binding to different plaque particles: Abeta-42
7 | B1 | 0
8 | B2 | 0
9 | B3 | 0

Test system: Low density cholesterol (Chl small) plaque particles
Assay: as above
Parameters: species or system human
Details: higher number = stronger affinity
Experimental: (§3) The goal was to isolate plaque particles synthesized in the bio-fluids in a relatively pure form to enable their subsequent use for identification of components that contribute to the plaque formation. In order to isolate cholesterol plaque particles, the plasma or serum samples obtained from atherosclerotic subjects were first centrifuged at 5,000 rpm for 5 min and the supernatants were transferred to new centrifuge tubes. Next, the supernatants were diluted in PBS to make 50% of the serum and used for incubation with cholesterol oligomers/aggregates. Each assay was performed in 1 mL reaction (800 μL of 50% plasma or serum) and 200 μL (30 μg) of the Cholesterol aggregates and the mixtures were incubated at 37° C. for 1 hr After the incubation, the mixture was directly used for sample acquisition using flow cytometer (FACS ARIA II, BD Biosciences, San Jose, Calif.). […] In order to isolate these fractions, three sets of gates were drawn in the acquisition blot to separately sort and isolate High density or high complex cholesterol particles, Low density or low complex cholesterol particles and both High and low density cholesterol particles together.
as §1, §2
(§4) Scaffold (version Scaffold_4.2.1, Proteome Software Inc., Portland, Oreg.) was used to validate MS/MS based peptide and protein identifications. […] Protein probabilities were assigned by the Protein Prophet algorithm (Nesvizhskii, Al et al 2003).

Row | Molecule | Semi-quantitative analysis of proteins binding to different plaque particles: Chl small
10 | B1 | 4
11 | B2 | 1
12 | B3 | 3

Test system: High Density cholesterol (Chl Large) plaque particles
Assay: as above
Parameters: species or system human
Details: higher number = stronger affinity
Experimental: as §3, §1, §2, §4

Row | Molecule | Semi-quantitative analysis of proteins binding to different plaque particles: Chl Large
13 | B1 | 2
14 | B2 | 3
15 | B3 | 4

From patent US9618524B2, “Method, composition, isolation and identification of a plaque particle and related biomarker” (Plaxgen Inc., priority 2012, dated 2017)
